Measured values reported in patent publication US20190376079A1 (WHITEHEAD INSTITUTE FOR BIOMEDICAL RESEARCH, published 2019).

Target: SBP-tagged EF2 purified from WDR85 deficient (WDR85GT) cells (human, UniProt P13639 1-858)
Assay: co-purification with SBP-tagged EF2 on streptavidin sepharose from WDR85GT cells; silver stain, mass spectrometry, immunoblot
From the text: Proteins were separated using SDS-PAGE gel electrophoreses and visualized using silverstaining. For mass spectrometry, the EF2 band was purified from gel and digested using trypsin.

B1: DPH5 (enzyme)
chain: MLYLIGLGLGDAKDITVKGLEVVRRCSRVYLEAYTSVLTVGKEALEEFYGRKLVVADREEVEQEADNILKDADISDVAFLVVGDPFGATTHSDLVLRATKLGIPYRVIHNASIMNAVGCCGLQLYKFGETVSIVFWTDTWRPESFFDKVKKNRQNGMHTLCLLDIKVKEQSLENLIKGRKIYEPPRYMSVNQAAQQLLEIVQNQRIRGEEPAVTEETLCVGLARVGADDQKIAAGTLRQMCTVDLGEPLHSLIITGGSIHPMEMEMLSLFSIPENSSESQSINGL
notes: also called methyltransferase DPH5
B1: binds.
